In patent US20200325237A1 (AVIDITY BIOSCIENCES, published 2020):

T1: TfR2 (transferrin receptor 2) (UniProt Q9UP52 105-801, limits assumed)
T1 sequence (looked up): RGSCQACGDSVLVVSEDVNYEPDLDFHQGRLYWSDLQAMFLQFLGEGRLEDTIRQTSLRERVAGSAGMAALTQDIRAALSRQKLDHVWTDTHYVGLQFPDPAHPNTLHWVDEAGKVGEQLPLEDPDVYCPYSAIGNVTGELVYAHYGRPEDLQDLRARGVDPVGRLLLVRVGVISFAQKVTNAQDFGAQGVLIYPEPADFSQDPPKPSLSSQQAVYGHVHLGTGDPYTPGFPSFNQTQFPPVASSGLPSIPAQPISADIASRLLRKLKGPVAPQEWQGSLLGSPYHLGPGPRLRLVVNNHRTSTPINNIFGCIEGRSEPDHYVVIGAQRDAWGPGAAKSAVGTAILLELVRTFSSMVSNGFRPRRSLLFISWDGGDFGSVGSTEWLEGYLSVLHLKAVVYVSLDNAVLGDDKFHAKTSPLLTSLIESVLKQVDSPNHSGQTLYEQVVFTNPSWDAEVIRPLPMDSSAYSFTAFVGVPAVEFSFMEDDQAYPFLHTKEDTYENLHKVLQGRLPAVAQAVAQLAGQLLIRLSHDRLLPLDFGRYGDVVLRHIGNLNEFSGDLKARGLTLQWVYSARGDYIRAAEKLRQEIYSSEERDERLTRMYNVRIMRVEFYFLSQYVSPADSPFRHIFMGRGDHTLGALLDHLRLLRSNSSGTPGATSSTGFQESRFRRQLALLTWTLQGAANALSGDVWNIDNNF


Key:
[1] = biological target: T2, hTfR (human transferrin receptor, source and construct not stated) (human, UniProt P02786 89-760, limits assumed); experiment: ELISA, biotinylated antibody on hTfR captured by plate-coated human holo-transferrin (Tf+TfR); fit: specific binding with Hill slope
T2 sequence (P02786 89-760 limits assumed): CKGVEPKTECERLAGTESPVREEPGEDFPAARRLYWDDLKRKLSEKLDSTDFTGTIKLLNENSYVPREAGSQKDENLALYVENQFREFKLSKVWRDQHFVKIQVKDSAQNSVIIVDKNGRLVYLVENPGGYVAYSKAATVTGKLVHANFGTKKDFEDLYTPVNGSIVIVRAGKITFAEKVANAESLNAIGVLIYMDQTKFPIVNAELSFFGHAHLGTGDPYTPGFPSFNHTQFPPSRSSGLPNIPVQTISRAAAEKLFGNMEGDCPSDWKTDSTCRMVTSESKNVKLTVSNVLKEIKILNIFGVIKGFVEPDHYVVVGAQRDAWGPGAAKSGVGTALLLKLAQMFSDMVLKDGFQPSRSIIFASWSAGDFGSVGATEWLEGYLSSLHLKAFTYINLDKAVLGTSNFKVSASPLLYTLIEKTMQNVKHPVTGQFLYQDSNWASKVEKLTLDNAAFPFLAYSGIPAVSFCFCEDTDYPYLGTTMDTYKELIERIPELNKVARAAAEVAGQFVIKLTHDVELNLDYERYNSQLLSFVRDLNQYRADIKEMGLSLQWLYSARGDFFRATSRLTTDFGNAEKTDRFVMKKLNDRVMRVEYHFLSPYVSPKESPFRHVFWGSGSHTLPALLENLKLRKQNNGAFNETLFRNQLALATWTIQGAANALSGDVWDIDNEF
Procedure: (§1) Antibodies were biotinylated using 50 fold molar excess of EZ-Link No weigh NHS-Biotin (Thermo Scientific A39256) following manufacturer's instructions. Half-well high-bind plates (Costar #3690) were coated with 500 ng/mL purified human holo-transferrin (R&D Systems 2914-HT) in PBS at 4° C. overnight. For comparison, plates were coated directly with hTfR. Plates were washed four times with 100 μL of Tris buffered saline+Tween (20×TBST, Cell Signaling 9997S). 100 μL of Superblock (ThermoFisher PI-37535) was added to each well and incubated for 1 hour at room temperature. The wash step was repeated before the addition of the hTfR (200 ng/mL in 25 μl) to the transferrin plates, or Superblock to the hTfR plates, and incubated for 30 minutes. Biotinylated antibodies were diluted to 20 nM for the high concentration and added to the plates with 3-fold serial dilution. 25 μl/well was added to the 25 μl already in the plate. Plates were incubated for 1 hour, and wash step was repeated. Streptavidin-HRP (R&D Systems DY998) was added following recommended dilution on the package insert, and a final wash step was done. Binding was measured by the addition of 50 μL of 1-Step™ Ultra TMB-ELISA (ThermoFisher, 34028), incubated for 5 minutes, and the reaction was stopped with the addition of 25 μL of Stop Solution 2N sulfuric Acid (R&D Systems DY994). Absorbance was measured at 450 nm, with reference wavelength 570 nm subtracted. Binding constants were determined using GraphPad Prism Specific Binding with Hill Slope. Change in antibody binding constants in the presence versus absense of transferrin is considered relative to the commercially available antibody which is known to have an overlapping epitope with transferrin (AF2474, R&D Systems).

[2] = biological target: T3, recombinant human transferrin receptor protein (Sino Biological 11020-H07H) (human, UniProt P02786 89-760); experiment: ELISA on plate-coated recombinant human TfR1 (CD71); fit: specific binding with Hill slope (row labels blank in the lower block; row taken by the order Bmax, h, Kd)
T3 construct: Bought protein coated on ELISA plates; also called recombinant human TfR1; human TfR1
T3 sequence (P02786 89-760 limits assumed): as above
Procedure: (§2) Half-well high-binding 96-well plates (Costar #3690) were coated with recombinant human transferrin receptor protein (Sino Biological 11020-H07H) or recombinant cyno transferrin receptor protein (Sino Biological 90253-C07H) at 1 ng/μL in PBS (Gibco 14190) and incubated overnight at 4° C. Plates were washed four times with 100 μL of Tris buffered saline+Tween (20×TBST, Cell Signaling 9997S). 100 μL of Superblock (ThermoFisher PI-37535) was added to each well and incubated for 1 hour at room temperature. The wash step was repeated before the addition of the samples. Samples were added at concentrations up to 10 nM, 50 μL/well. Plates were incubated for another hour at room temp and wash step repeated. Secondary antibody (Peroxidase AffiniPure Goat Anti-Human IgG, Fcγ Fragment Specific, Jackson Immunoresearch, 109-035-098) was diluted 1:5000 in Superblock and 50 μL/well added. Plates were incubated for 1 hour at room temperature and washed one more time. Binding was measured by the addition of 50 μL of 1-Step™ Ultra TMB-ELISA (ThermoFisher, 34028), incubated for 5 minutes, and the reaction was stopped with the addition of 25 μL of Stop Solution 2N sulfuric Acid (R&D Systems DY994). Absorbance was measured at 450 nm, with reference wavelength 570 nm subtracted. Binding constants were determined using GraphPad Prism Specific Binding with Hill Slope.

[3] = biological target: T1, TfR2 (transferrin receptor 2); experiment: A450 plate assay on TfR2 (method not described in the text)
[4] = biological target: T2, hTfR (human transferrin receptor, …); experiment: ELISA; ratio of the Kd on HFE-captured hTfR to the Kd on directly coated hTfR
[5] = biological target: T2, hTfR (human transferrin receptor, …); experiment: ELISA, biotinylated antibody on hTfR captured by plate-coated HFE (HFE+TfR); fit: specific binding with Hill slope
[6] = biological target: T4, recombinant cyno transferrin receptor protein (Sino Biological 90253-C07H) (cyno, UniProt H9EXL1 89-760 (rhesus entry)); experiment: ELISA on plate-coated recombinant cyno TfR1 (CD71); fit: specific binding with Hill slope
T4 construct: Bought protein coated on ELISA plates; also called recombinant cyno TfR1; cynoTfR1
T4 sequence (chain, as listed by the source C07H C07H): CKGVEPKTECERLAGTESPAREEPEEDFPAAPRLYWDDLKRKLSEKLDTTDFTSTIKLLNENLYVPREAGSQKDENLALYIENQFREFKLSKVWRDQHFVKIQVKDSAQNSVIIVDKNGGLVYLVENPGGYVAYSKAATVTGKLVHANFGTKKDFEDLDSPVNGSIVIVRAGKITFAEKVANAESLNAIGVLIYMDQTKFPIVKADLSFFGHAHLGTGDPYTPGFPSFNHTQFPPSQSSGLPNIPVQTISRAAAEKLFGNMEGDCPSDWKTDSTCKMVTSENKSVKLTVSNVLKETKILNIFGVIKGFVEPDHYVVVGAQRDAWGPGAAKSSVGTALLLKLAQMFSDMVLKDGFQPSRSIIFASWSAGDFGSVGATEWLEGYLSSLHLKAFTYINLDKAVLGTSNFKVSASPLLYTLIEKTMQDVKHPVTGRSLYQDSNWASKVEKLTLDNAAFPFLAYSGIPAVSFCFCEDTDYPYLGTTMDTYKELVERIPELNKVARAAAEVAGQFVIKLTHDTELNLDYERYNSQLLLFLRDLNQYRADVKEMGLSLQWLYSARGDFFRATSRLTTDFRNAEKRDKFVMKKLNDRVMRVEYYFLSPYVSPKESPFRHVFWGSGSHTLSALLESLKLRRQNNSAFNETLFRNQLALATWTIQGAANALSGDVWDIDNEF
Procedure: as §2

[7] = biological target: T2, hTfR (human transferrin receptor, …); experiment: ELISA; ratio of the Kd on transferrin-captured hTfR to the Kd on directly coated hTfR
Procedure: as §1

[8] = biological target: T2, hTfR (human transferrin receptor, …); experiment: SPR (BioRad ProteOn XPR36), mAb captured on Protein A, hTfR as analyte, 25 C
Procedure: The binding kinetics of nine exemplary humanized anti-TfR antibodies and the parent chimeric antibody were characterized. Studies were run on a BioRad ProteOn XPR36 optical biosensor using a GLM sensor chip coated with Protein A for mAb capture. Running buffer included 10 mM EPES, 150 mM NaCl, pH 7.4 with 0.05 tween-20 with 0.2 mg/ml BSA. Data were collected at 25 degrees C. All mAbs were diluted into running buffer to 2 ug/ml based on the stock concentration provided. Each was then captured for 40 seconds over a Protein A surface.
hTfR (100 ug) was dissolved into […] of water to yield a 4.3 uM stock concentration. hTfR was dilted to 43 nM as the highest concentration and tested in a 3 fold dilution series. hTfR was injected at 200 ul/min for 2 minutes followed by a one-hour dissociation phase.

Bmax [1] [A450] | Kd [1] [nM] | h [1] | Bmax [2] [% max binding] | Kd [2] [nM] | h [2] | binding result [3] | Kd(HFE+TfR)/Kd(TfR) [4] | Bmax [5] [A450] | Kd [5] [nM] | h [5] | Bmax [6] [% max binding] | Kd [6] [nM] | h [6] | Kd(Tf+TfR)/Kd(TfR) [7] | Kd [8] [nM] | koff [8] [s⁻¹] | kon [8] [M⁻¹ s⁻¹] | Binder
3.51 | 0.057 | 1.48 | 95.2 | 0.00823 | 1.57 | no binding (tested: 1000 nM) | 10.4 | 3 | 0.229 | 1.36 | 94.3 | 0.0114 | 1.74 | 2.6 | 0.00231 | 1.81e-06 | 784000 | 13E4-Variant 9ii (antibody, human IgG1, kappa, L234A L235A, Humanized hIgG1 with Fc mutations; also called hIgG1 TfR-Var9ii) heavy: QVQLVQSGAEVKKPGASVKVSCKASGYTFTNYWMHWVRQAPGQGLEWMGEINPINGRSNYAQKFQGRVTLTVDTSISTAYMELSRLRSDDTAVYYCARGTRAMHYWGQGTLVTVSSASTKGPSVFPLAPSSKSTSGGTAALGCLVKDYFPEPVTVSWNSGALTSGVHTFPAVLQSSGLYSLSSVVTVPSSSLGTQTYICNVNHKPSNTKVDKRVEPKSCDKTHTCPPCPAPEAAGGPSVFLFPPKPKDTLMISRTPEVTCVVVDVSHEDPEVKFNWYVDGVEVHNAKTKPREEQYNSTYRVVSVLTVLHQDWLNGKEYKCGVSNKALPAPIEKTISKAKGQPREPQVYTLPPSREEMTKNQVSLTCLVKGFYPSDIAVEWESNGQPENNYKTTPPVLDSDGSFFLYSKLTVDKSRWQQGNVFSCSVMHEALHNHYTQKSLSLSPG light: DIQMTQSPSSLSASVGDRVTITCRTSENIYNNLAWYQQKPGKAPKLLIYAATNLAEGVPSRFSGSGSGTDYTLTISSLQPEDFATYYCQHFWGTPLTFGGGTKVEIKRTVAAPSVFIFPPSDEQLKSGTASVVCLLNNFYPREAKVQWKVDNALQSGNSQESVTEQDSKDSTYSLSSTLTLSKADYEKHKVYACEVTHQGLSSPVTKSFNRGEC
3.47 | 0.0619 | 1.56 | 95.3 | 0.00713 | 1.29 | no binding (tested: 1000 nM) | 8.5 | 2.7 | 0.182 | 1.65 | 94.2 | 0.0125 | 1.55 | 2.9 | 0.00851 | 6.13e-06 | 720000 | 13E4-Variant 15i (antibody, human IgG1, kappa, L234A L235A, Humanized hIgG1 with Fc mutations; also called hIgG1 TfR-Var15i) heavy: not shown light: DIQMTQSPSSLSASVGDRVTITCRTSENIYSNLAWYQQKPGKAPKLLIYAGTNLADGVPSRFSGSGSGTDYTLTISSLQPEDFANYYCQHFWGTPLTFGGGTKVEIKRTVAAPSVFIFPPSDEQLKSGTASVVCLLNNFYPREAKVQWKVDNALQSGNSQESVTEQDSKDSTYSLSSTLTLSKADYEKHKVYACEVTHQGLSSPVTKSFNRGEC
3.53 | 0.0546 | 1.49 | 93.8 | 0.012 | 1.56 | no binding (tested: 1000 nM) | 11.4 | 3.14 | 0.248 | 1.38 | 94 | 0.0137 | 1.74 | 2.5 | 0.00527 | 4.17e-06 | 791000 | 13E4-Variant 9iii (antibody, human IgG1, kappa, L234A L235A, Humanized hIgG1 with Fc mutations; also called hIgG1 TfR-Var9iii) heavy: QVQLVQSGAEVKKPGASVKVSCKASGYTFTNYWMHWVRQAPGQGLEWMGEINPINGRSNYAQKFQGRVTLTVDTSISTAYMELSRLRSDDTAVYYCARGTRAMHYWGQGTLVTVSSASTKGPSVFPLAPSSKSTSGGTAALGCLVKDYFPEPVTVSWNSGALTSGVHTFPAVLQSSGLYSLSSVVTVPSSSLGTQTYICNVNHKPSNTKVDKRVEPKSCDKTHTCPPCPAPEAAGGPSVFLFPPKPKDTLMISRTPEVTCVVVDVSHEDPEVKFNWYVDGVEVHNAKTKPREEQYNSTYRVVSVLTVLHQDWLNGKEYKCKVSNKARPAPIEKTISKAKGQPREPQVYTLPPSREEMTKNQVSLTCLVKGFYPSDIAVEWESNGQPENNYKTTPPVLDSDGSFFLYSKLTVDKSRWQQGNVFSCSVMHEALHNHYTQKSLSLSPG light: DIQMTQSPSSLSASVGDRVTITCRTSENIYNNLAWYQQKPGKAPKLLIYAATNLAEGVPSRFSGSGSGTDYTLTISSLQPEDFATYYCQHFWGTPLTFGGGTKVEIKRTVAAPSVFIFPPSDEQLKSGTASVVCLLNNFYPREAKVQWKVDNALQSGNSQESVTEQDSKDSTYSLSSTLTLSKADYEKHKVYACEVTHQGLSSPVTKSFNRGEC
